Data published in patent US9266964.
Substitutions are numbered along the chain they refer to.

Target: T1, human plasma kallikrein (human, UniProt P03952 20-390; P03952 391-638)
T1 construct: two disulfide-linked chains; also called pKal; human pKal
Experiment: ELISA; signal on coated biotinylated human plasma kallikrein divided by signal on streptavidin; Fab
From the text: Abbreviations used: "T/B" is the ELISA signal obtained using of the target (biotinylated plasma kallikrein) divided by the ELISA signal of the "background" (streptavidin); both of which were coated on microtiter plates. "nd" is not determined. The symbol "q" refers to the amber suppressible stop codon (TAG), which is translated as glutamine (Q) in strains of E. coli such as the TG1 cells that were used to express the Fab fragments.

T1 sequence (P03952 20-390, chain 1 of 2): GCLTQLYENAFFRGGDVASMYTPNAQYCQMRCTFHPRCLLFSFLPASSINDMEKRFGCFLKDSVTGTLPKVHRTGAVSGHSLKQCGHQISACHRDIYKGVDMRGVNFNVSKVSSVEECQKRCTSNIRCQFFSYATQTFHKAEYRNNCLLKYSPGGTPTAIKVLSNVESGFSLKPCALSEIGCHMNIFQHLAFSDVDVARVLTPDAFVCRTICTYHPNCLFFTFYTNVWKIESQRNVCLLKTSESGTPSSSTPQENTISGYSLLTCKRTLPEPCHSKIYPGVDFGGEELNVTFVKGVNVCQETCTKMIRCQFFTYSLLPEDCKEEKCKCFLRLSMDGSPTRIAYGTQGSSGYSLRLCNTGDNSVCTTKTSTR
T1 sequence (P03952 391-638, chain 2 of 2): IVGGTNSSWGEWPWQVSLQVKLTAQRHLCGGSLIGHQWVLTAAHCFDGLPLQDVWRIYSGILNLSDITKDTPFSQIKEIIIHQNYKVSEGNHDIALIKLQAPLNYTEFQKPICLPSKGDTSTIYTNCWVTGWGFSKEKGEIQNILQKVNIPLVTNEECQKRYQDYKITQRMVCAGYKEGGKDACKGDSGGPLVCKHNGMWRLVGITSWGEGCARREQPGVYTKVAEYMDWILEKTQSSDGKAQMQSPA

B1: M76-G06 (Fab, V domains shown)
VH: EVQLLESGGGLVQPGGSLRLSCAASGFTFSGYIMHWVRQAPGKGLEWVSWIYPSGGWTEYADSVKGRFTISRDNSKNTLYLQMNSLRAEDTAVYYCARDAPGVGAIDYWGQGTLVTVSS
VL: DIQMTQSPSSLSASVRDRVTITCRASQSISTYLNWYQQKPGEAPKLLVFAASSLQSGVPSRFSGSGSGTDFTLSISSLQPEDFATYYCQQSYSTPHTFGQGAKVEIK
notes: Fab fragment (E. coli TG1); printed HC runs into the start of CH1
- Human pKal ELISA (T/B): 11.8 T/B (target signal / background signal)

B2: M76-G02 (Fab, V domains shown)
VH: EVQLLESGGGLVQPGGSLRLSCAASGFTFSLYAMWWVRQAPGKGLEWVSYISSSGGFTSYADSVKGRFTISRDNSKNTLYLQMNSLRAEDTAVYYCARYRVGVAATDYWGQGTLVTVSS
VL: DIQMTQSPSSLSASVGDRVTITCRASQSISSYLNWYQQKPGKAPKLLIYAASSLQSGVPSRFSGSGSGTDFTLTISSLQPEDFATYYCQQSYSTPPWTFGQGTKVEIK
notes: as for B1
- Human pKal ELISA (T/B): 10.3 T/B (target signal / background signal)

B3: M77-H04 (Fab, V domains shown)
VH: EVQLLESGGGLVQPGGSLRLSCAASGFTFSYYTMIWVRQAPGKGLEWVSGIRSSGGGTRYADSVKGRFTISRDNSKNTLYLQMNSLRAEDTAVYYCAKDGSRYSYGSIYYYYGMDAWGQGTTVTVSS
VL: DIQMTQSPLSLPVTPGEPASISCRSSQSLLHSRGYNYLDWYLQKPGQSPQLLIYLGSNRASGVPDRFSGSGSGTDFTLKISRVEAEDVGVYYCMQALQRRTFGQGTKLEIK
notes: as for B1
- Human pKal ELISA (T/B): 7.6 T/B (target signal / background signal)

B4: M29-G10 (Fab, V domains shown)
VH: EVQLLESGGGLVQPGGSLRLSCAASGFTFSFYKMIWVRQAPGKGLEWVSSISSSGGSTQYADSVKGRFTISRDNSKNTLYLQMNSLRAEDTAVYYCARDRVDLGYLDYWGQGTLVTVSS
VL: DIQMTQSPSSLSSSVGDSATITCRASQSISIYLNWYQQKPGKAPKILIYGASQLESGVPSRFSGSGSGTDFTLTVSGLQPEDFATYWCQQSYNVPYTFGQGTKLEIK
notes: as for B1
- Human pKal ELISA (T/B): 16.4 T/B (target signal / background signal)

B5: M29-D10 (Fab, V domains shown)
VH: EVQLLESGGGLVQPGGSLRLSCAASGFTFSWYPMYWVRQAPGKGLEWVSSIGSSGGPTPYADSVKGRFTISRDNSKNTLYLQMNSLRAEDTAVYYCARWADYGGSLDYWGQGTLVTVSS
VL: DIQMTQSPSSLSASVGDTVSITCRASQSITIYLNWYQHKPGKAPNLLIYGASNLHSGVPSRFSGSGSGTDFTLTISSLQPEDFATYYCQQSYDTPLTFGGGTKVEIK
notes: as for B1
- Human pKal ELISA (T/B): 23.6 T/B (target signal / background signal)

B6: M28-F07 (Fab, V domains shown)
VH: EVQLLESGGGLVQPGGSLRLSCAASGFTFSDYTMYWVRQAPGKGLEWVSSIVPSGGHTLYADSVKGRFTISRDNSKNTLYLQMNSLRAEDTAVYYCAKDHLSSWYGGFFDYWGQGTLVTVSS
VL: DIQMTQSPSSVSASVGDRVTITCRASQGISSWLAWYQQKPGKAPKLLIYATSGLQSGVPSRFSGSGSGTDFTLTISSLQPEDFATYYCQQAKSFPLTFGGGTRVEIK
notes: as for B1
- Human pKal ELISA (T/B): 33 T/B (target signal / background signal)

B7: M29-C07 (Fab, V domains shown)
VH: EVQLLESGGGLVQPGGSLRLSCAASGFTFSGYDMMWVRQAPGKGLEWVSVISSSGGNTAYADSVKGRFTISRDNSKNTLYLQMNSLRAEDTAVYYCARESSGLYYFDYWGQGTLVTVSS
VL: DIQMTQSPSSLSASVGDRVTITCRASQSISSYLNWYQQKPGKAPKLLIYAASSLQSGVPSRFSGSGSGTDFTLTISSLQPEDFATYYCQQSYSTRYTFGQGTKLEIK
notes: as for B1
- Human pKal ELISA (T/B): 5.2 T/B (target signal / background signal)

B8: M29-G08 (Fab, V domains shown)
VH: EVQLLESGGGLVQPGGSLRLSCAASGFTFSYYHMWWVRQAPGKGLEWVSGISPSGGFTFYADSVKGRFTISRDNSKNTLYLQMNSLRAEDTAVYYCARDYYYDSSGYSPLGYWGQGTLVTVSS
VL: DIQMTQSPATLSASPGETVTLSCRASQNIGNDVAWYRQRPGQAPRLLIHHASTRAYGIPARLRGSGSATEFTLTITSLEPEDFAIYYCQQFYDWPAHTFALGTRLEIKR
notes: as for B1
- Human pKal ELISA (T/B): 40.4 T/B (target signal / background signal)

B9: M28-E11 (Fab, V domains shown)
VH: EVQLLESGGGLVQPGGSLRLSCAASGFTFSLYDMTWVRQAPGKGLEWVSGISSSGGVTIYADSVKGRFTISRDNSKNTLYLQMNSLRAEDTAVYYCARTYYYDSSGYADAFDIWGQGTMVTVSS
VL: DIQMTQSPSSVSASVGDRVTINCRASQDISNWLAWYQQKPGKAPNLLIYAASSLQTGAPSRFSGSGSGTDFTLTISSLQPEDFGTYVCQQSYSLPWTFGLGTKVEVR
notes: as for B1
- Human pKal ELISA (T/B): 29.3 T/B (target signal / background signal)

B10: M76-F02 (Fab, V domains shown)
VH: EVQLLESGGGLVQPGGSLRLSCAASGFTFSLYDMNWVRQAPGKGLEWVSGISPSGGQTMYADSVKGRFTISRDNSKNTLYLQMNSLRAEDTAVYYCARQPMISAFDIWGQGTMVTVSS
VL: DIQMTQSPSSLSASVGDRVTITCRASQTIDNYLHWYQQKPGKAPKVLIHDASSLQSGVPPRFSGSGSGTDFTLTISSLQPEDFATYYCQQSYDTPQYTFGQGTKLEIK
notes: as for B1
- Human pKal ELISA (T/B): 6.4 T/B (target signal / background signal)

B11: M28-E01 (Fab, V domains shown)
VH: EVQLLESGGGLVQPGGSLRLSCAASGFTFSSYPMGWVRQAPGKGLEWVSRISSSGGMTIYADSVKGRFTISRDNSKNTLYLQMNSLRAEDTAVYYCARDDWNVGMDVWGQGTTVTVSS
VL: DIQMTQSPSSLSASVGDRVTITCRASQSISSYLNWYQQKPGKAPKLLIYAASSLQSGVPSKFSGSGSGTDYTLTISSLQPEDFATYYCQQTYTTPWTFGQGTKVEIK
notes: as for B1
- Human pKal ELISA (T/B): 41 T/B (target signal / background signal)

B12: M77-C07 (Fab, V domains shown)
VH: B1 VH with G31L, H35G, W50G, W57F, E59M, D99E, A100S, P101S, G104A, I106P
VL: B11 VL with S10T, S28N, K61R, Y71F, Y87S, T91S, T93S, W96R
notes: as for B1
- Human pKal ELISA (T/B): 16.1 T/B (target signal / background signal)

B13: M76-H02 (Fab, V domains shown)
VH: EVQLLESGGGLVQPGGSLRLSCAASGFTFSMYWMQWVRQAPGKGLEWVSYIYPSGGPTKYADSVKGRFTISRDNSKNTLYLQMNSLRAEDTAVYYCARPSGSYGDAFDIWGQGTMVTVSS
VL: DIQMTQSPSSLSASEGDRVTITCRASQDISVYLNWYQMKSGKAPKLLIYGGASLQSGVPARFSGSGYGTDFTLTITDLRPEDFATYYCQQSYSLPFTFGGGTKVEIK
notes: as for B1
- Human pKal ELISA (T/B): 13.4 T/B (target signal / background signal)

B14: M74-A07 (Fab, V domains shown)
VH: EVQLLESGGGLVQPGGSLRLSCAASGFTFSQYLMMWVRQAPGKGLEWVSSIYPSGGYTSYADSVKGRFTISRDNSKNTLYLQMNSLRAEDTAVYYCARVSTAVADNDYWGQGTLVTVSS
VL: DIQMTQSPSSLSASVRDRVTITCRTSQNINTYLNWYYQAPGRAPKLLIFGVSSLHRGVSSRFSGSGDGTEFTLTISSLQPEDIGTYFCQQSYSSPWTFGQGTKVEIK
notes: as for B1
- Human pKal ELISA (T/B): 8.6 T/B (target signal / background signal)

B15: M6-D03 (Fab, V domains shown)
VH: B14 VH with Q31K, L33F, M35G, S50V, Y52G, P53S, Y57W
VL: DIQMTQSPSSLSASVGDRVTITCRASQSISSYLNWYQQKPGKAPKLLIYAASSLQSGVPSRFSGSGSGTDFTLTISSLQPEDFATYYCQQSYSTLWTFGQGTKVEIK
notes: as for B1
- Human pKal ELISA (T/B): 15.5 T/B (target signal / background signal)

B16: M6-A06 (Fab, V domains shown)
VH: B14 VH with Q31L, L33Q, M35T, S50G, Y52W, Y57F, S59D
VL: DIQMTQSPSSLSASVGDSVTISCRASQSISMYLNWYQHKPGKAPKLLIYGTSSLQSGVPSRFSGSGPGGTDFTLTISSLQPEDFATYYCQQSYSAPWTFGQGTKVEIK
notes: as for B1
- Human pKal ELISA (T/B): 11.7 T/B (target signal / background signal)

B17: M6-A08 (Fab, V domains shown)
VH: EVQLLESGGGLVQPGGSLRLSCAASGFTFSPYPMQWVRQAPGKGLEWVSSISSSGGMTEYADSVKGRFTISRDNSKNTLYLQMNSLRAEDTAVYYCARDDYGGKGGAFDIWGQGTMVTVSS
VL: DIQMTQSPSSLSASVGDRVTITCRASQRISFYLNWFQQKPGKAPNLLIYGASSLQSGVPSRFSGSGSGTDFTLTISSLQPKDFGTYYCQQTFSTPNTFGQGTKLEIK
notes: as for B1
- Human pKal ELISA (T/B): 23.4 T/B (target signal / background signal)
